Results published in article PMC11464180 (Immunity, 2024).

B1: 310–18A5 (antibody, V domains shown)
VH: QVQLMQSGTEVKKPGSSVRVSCKASGSTFNSDAISWVRQAPGQGLEWMGGILGMFRTVNYAQRFQGRVTITADELMSTAYMELSGLRFEDTAVYYCARGDGYKPNFLRYWGQGTLITVSS
VL: TLSLSPGERATLSCRASQSVSSTSLAWYQQKFGQAPRLLIYGASNRATGIPDRFSGSGSGTDFTLTISRLEPEDFAVYYCQQYGNSLTFGGGTKVEIK
B2: 013–10 3F02 IgG K56N mutant (antibody, V domains shown)
VH: QVQLVESGGGVAQPGRSLRLSCAASGFTFSTYGMHWVRQAPGKGLEWVAVISYDGSNRYYAEILKDRFTISRDNSKNTVYLQMNSLRTEDTAVYFCAKEGRPLIVSGTHFFQFYYGMDVWGQGTTVTVSS
VL: DIQMTQSPSSLSASVGDRVTISCRASQSIGTYLNWYQQKPGKAPNLLIYGTSTLKSGVPSRFSGSGSGTDFTLTIGSLQPEDFATYFCQQSFSPPLTFGRGTRLEIK

Assays:
H1 mini-HA (#4900) [1] = target: T1, H1 mini-HA (#4900) (Designed from influenza A virus …, stabilised); test: BLI
[2] = target: H1N1 A/Solomon Island/3/2006 HA (Influenza A virus A/Solomon …, UniProt A7Y8I1, strain); test: BLI
H1 mini-HA (#4900) [3] = target: T1, H1 mini-HA (#4900); test: ELISA

Row | Binder | Kd (H1 mini-HA (#4900) [1]) | Kd [2] | fold weakening of binding affinity against WT (H1 mini-HA (#4900) [3])
1 | B1 | 1 nM | 0.2 nM | 
2 | B2 |  |  | 10 fold
